Laboratory results from patent US20220073621A1.

Columns and labels:
[1] = biological target: human-mouse chimeric PD-L1 on CHO cells (human-mouse chimeric); assay: flow cytometry, CHO-cPD-L1 cells, Anti-human IgG Fc-FITC
[2] = biological target: Rhesus monkey PD-L1 on CHO cells (rhesus monkey); assay: flow cytometry, CHO-rmPD-L1 cells, Anti-mouse-IgGFc-FITC
[3] = biological target: Mouse PD-L1 on CHO cells (mouse) (UniProt Q9EP73); assay: flow cytometry, CHO-mPD-L1 cells, Anti-human IgG Fc-FITC
[4] = biological target: Mouse PD-L1 on CHO cells (mouse) (UniProt Q9EP73); assay: flow cytometry, CHO-mPD-L1 cells, Anti-mouse-IgGFc-FITC
[5] = biological target: Rhesus monkey PD-L1 on CHO cells (rhesus monkey); assay: flow cytometry, CHO-rPD-L1 cells, Anti-human IgG Fc-FITC

Sequence of Rhesus monkey PD-L1 on CHO cells (rhesus monkey) (Q9NZQ7 other isoform, or with tags, fused parts or gaps limits assumed): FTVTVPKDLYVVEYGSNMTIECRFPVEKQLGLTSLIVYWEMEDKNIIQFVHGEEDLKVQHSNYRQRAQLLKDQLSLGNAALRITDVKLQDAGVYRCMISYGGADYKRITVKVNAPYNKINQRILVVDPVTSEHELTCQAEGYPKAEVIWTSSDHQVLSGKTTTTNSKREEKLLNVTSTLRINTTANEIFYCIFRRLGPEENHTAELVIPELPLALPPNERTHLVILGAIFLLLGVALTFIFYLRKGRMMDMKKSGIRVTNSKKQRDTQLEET
Sequence of Mouse PD-L1 on CHO cells (mouse) (Q9EP73 19-290 limits assumed): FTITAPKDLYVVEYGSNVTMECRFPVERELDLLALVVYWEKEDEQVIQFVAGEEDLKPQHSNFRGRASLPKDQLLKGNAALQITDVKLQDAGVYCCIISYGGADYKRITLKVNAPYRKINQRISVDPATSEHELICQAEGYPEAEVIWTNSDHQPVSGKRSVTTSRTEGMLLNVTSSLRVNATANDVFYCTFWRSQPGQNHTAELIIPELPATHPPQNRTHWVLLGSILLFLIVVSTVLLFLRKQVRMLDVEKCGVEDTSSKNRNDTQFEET
Sequence of human-mouse chimeric PD-L1 on CHO cells (human-mouse chimeric) (Q9EP73 other isoform, or with tags, fused parts or gaps mutant limits assumed): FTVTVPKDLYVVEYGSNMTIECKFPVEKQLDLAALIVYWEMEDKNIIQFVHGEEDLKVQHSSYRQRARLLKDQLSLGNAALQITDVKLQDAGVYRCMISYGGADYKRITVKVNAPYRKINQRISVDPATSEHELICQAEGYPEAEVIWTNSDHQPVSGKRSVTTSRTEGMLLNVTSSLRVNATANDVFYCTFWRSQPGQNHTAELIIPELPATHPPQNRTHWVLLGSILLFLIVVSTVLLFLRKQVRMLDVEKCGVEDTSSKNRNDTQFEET

% cells in the FITC-positive gate [1]: 0.779% | % cells in the FITC-positive gate [2]: 1.13% | % cells in the FITC-positive gate [3]: 0.681% | % cells in the FITC-positive gate [4]: 5.52% | % cells in the FITC-positive gate [5]: 2.74%
Substance: NC
